Experimental data from patent US12410253B2, “Compositions comprising anti-NRP2 antibodies” (aTyr Pharma, Inc., priority 2019, dated 2025).
Entries after “also recorded” stand apart in the source; their conditions may differ.

T1: Human NRP2 (aa23-855) (Homo sapiens, UniProt O60462)
T1 construct: Human NRP2 (aa23-855)
T1 sequence (O60462 23-855 isoform O60462-3): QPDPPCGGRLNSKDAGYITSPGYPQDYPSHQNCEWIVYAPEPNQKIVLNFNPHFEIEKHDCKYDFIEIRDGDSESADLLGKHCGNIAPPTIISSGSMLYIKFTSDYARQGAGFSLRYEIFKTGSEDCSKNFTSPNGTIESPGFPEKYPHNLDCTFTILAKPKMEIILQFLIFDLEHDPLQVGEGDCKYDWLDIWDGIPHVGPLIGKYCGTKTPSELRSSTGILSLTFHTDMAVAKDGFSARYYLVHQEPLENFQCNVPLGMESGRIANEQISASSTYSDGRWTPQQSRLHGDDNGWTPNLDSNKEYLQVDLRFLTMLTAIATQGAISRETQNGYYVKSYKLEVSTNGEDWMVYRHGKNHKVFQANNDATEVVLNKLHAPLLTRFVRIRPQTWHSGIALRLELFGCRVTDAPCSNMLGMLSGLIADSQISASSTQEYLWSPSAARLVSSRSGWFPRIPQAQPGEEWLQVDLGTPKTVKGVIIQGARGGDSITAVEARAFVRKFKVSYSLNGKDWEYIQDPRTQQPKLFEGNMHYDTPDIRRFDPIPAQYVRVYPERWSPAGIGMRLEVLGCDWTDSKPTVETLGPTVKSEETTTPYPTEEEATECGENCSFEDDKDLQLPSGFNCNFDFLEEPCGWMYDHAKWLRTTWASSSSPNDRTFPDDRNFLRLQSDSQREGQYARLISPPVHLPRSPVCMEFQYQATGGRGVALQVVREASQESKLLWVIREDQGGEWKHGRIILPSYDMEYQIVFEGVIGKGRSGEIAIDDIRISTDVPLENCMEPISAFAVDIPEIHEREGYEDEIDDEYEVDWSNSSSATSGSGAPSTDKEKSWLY


Key:
Human NRP2 (aa23-855) = target: T1, Human NRP2 (aa23-855); test: SPR binding affinity of anti-NRP2 antibodies to human NRP2 antigen; details: KD = kd/ka, Langmuir (1:1) model
Method: Anti-NRP2 antibody binding and affinity measurements. […] SPR experiments were conducted on a Bio-Rad ProteOn XPR36 Protein Interaction Array instrument. Biotinylated anti-human antibody (ThermoFisher Cat #7103302100) was immobilized on ProteOn NLC sensor chips. Anti-NRP2 antibodies were subsequently flowed over and captured by the anti-human antibody. Human NRP2 antigen protein was flowed over the captured antibody at varying concentrations (150, 50, 16.67, 5.56, 1.85 nM). The sensor chip surface was regenerated between each analyte run to remove anti-NRP2 antibodies and NRP2 protein. Data was double referenced against a surface with no anti-NRP2 antibody captured (immobilized anti-human antibody only) and a buffer only blank. Affinity constants were derived by globally fitting sensograms to a Langmuir (1:1) interaction model in the ProteOn manager software. For each anti-NRP2 antibody, data from the multiple NRP2 concentrations was fit as a single data set with dissociation rate constant (kd), association rate constant (ka) and Rmax values as global parameters. The reported binding affinity is the equilibrium dissociation constant (KD) calculated from kd/ka. • Running buffer: 50 mM HEPES, 300 mM NaCl, 5 mM CaCl2), 0.005% Tween-20, pH 7.4 • Immobilized antibody: CaptureSelect Human Fab-kappa Kinetics Biotin Conjugate, ThermoFisher Cat #7103302100 • Antigen: Human NRP2 (aa23-855) with C-terminal Avi-, Myc- and His-tags • Regeneration buffer: 10 mM glycine pH 2.0

[1] = test system: phospho-Akt levels in U251 glioblastoma cells; test: Semaphorin 3F mediated inhibition of AKT phosphorylation in U251 cells; type: cell-based; details: antibody 10 μg/mL, 25 nM Sema3F 1 hour
Method: As shown schematically in FIG. 17, the treatment of cells with Sema3F should specifically block PI3K activity via NRP2 mediated interaction with plexin A1, thereby resulting in reduced phospho-Akt levels. To directly test the ability of the anti-NRP2 antibodies to block this effect, lysates were prepared following standard protocols (MesoScale Discovery, Phospho (Ser473)/Total Akt Assay Whole Cell Lysate Kit #K15100D). Serum starved and confluent U251 cells (Sigma, Cat. 09063001) were treated with 10 nM rapamycin (Sigma, Cat. 553211, 30 minutes), and blocking antibodies or controls were added (10 μg/mL, 30 minutes), followed by 25 nM Sema3F or serum free media for 1 hour in triplicate. Lysate protein concentrations were determined by BCA assay and samples were equalized to 0.4 mg/mL. Phospho and Total AKT were measured following the manufacturer's instructions and percent phosphorylation was calculated by dividing phosphorylated AKT relative units by total AKT relative units. Blocking of Sema3F for each antibody or control was determined by comparing percent phosphorylation of Sema3F treated cells to percent phosphorylation of non-Sema3F treated cells.

Molecule | Kd (Human NRP2 (aa23-855)) [nM] | blocking of the Sema3F induced decrease in intracellular phospho-Akt levels [1]
aNRP2-10v10: humanized, affinity matured anti-NRP2 antibody, target domain b1, VEGF-C blocking; VH SEQ ID NO: 49, VL SEQ ID NO: 50 (antibody, V domains shown, Variable heavy chain region; Light chain variable region) VH: EVQLVQSGAEVKKPGATVKISCKVSGFNIKDYYVHWVQQAPGKGLEWMGRIDVEDDETKYAPKFQGRVTITADTSTDTAYMELSSLRSEDTAVYYCATPIYGAREAWFAYWGQGTLVTVSS VL: DIQMTQSPSSLSASVGDRVTITCTASSSVSSSYLHWYQQKPGKAPKLLIYRTSNLASGVPSRFSGSGSGTDFTLTISSLQPEDFATYYCHQYYRSPPTFGGGTKVEIK | 0.029 | not blocked
aNRP2-11v7: humanized, affinity matured anti-NRP2 antibody, target domain b2; VH SEQ ID NO: 51, VL SEQ ID NO: 52 (antibody, V domains shown, Variable heavy chain region; Light chain variable region) VH: QVQLVQSGAEVKKPGASVKVSCKASGYTFTSFGISWVRQAPGQGLEWIGEIYPRSGNTYYNENFKGRATMTADKSTSTAYMELRSLRSDDTAVYYCARSSGYYGSTPFPYWGQGTLVTVSS VL: DIQMTQSPSSLSASVGDRVTITCRASQDISNYLNWYQQKPGKAVKLLIYYTSRLHSGVPSRFSGSGSGTDYTFTISSLQPEDIATYYCQQGNTLPWTFGGGTKVEIK | 0.95 | blocked the reduction in phospho-Akt levels; also recorded: block semaphorin 3F mediated inhibition of AKT phosphorylation; also recorded: can be blocked
